Experimental findings from patent publication EP4768503A1 are described below.

In the assay the target is amyloid precursor protein (APP) on HEK293-APP stable transfected cells (UniProt P05067). Put plainly: flow cytometry on HEK293-APP cells, four-parameter fit of MFI. (In general: In flow cytometry, cells or beads pass a laser one at a time.)
amyloid precursor protein (APP) on HEK293-APP stable transfected cells, sequence (P05067 18-770): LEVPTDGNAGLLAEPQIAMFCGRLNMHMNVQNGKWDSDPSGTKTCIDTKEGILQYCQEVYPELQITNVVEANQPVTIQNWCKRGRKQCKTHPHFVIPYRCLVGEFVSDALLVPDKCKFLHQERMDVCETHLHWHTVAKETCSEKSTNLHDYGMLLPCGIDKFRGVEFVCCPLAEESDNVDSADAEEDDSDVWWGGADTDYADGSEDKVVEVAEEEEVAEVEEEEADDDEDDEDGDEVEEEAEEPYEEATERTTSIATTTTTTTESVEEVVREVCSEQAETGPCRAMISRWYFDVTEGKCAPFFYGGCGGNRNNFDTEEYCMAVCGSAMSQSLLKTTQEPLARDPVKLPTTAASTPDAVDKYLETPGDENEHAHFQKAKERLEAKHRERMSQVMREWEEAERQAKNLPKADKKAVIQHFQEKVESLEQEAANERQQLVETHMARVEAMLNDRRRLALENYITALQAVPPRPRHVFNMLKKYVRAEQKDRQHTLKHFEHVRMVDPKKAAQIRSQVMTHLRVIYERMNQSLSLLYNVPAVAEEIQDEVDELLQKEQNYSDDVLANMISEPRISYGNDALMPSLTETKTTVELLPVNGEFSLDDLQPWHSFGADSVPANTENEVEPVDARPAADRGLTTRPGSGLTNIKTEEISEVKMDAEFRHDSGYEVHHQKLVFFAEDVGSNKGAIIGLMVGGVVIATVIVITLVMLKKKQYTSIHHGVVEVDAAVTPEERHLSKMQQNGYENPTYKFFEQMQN

What is called EC50 is the midpoint of the concentration-response curve. Lecanemab (antibody) returned a concentration giving a half-maximal response (EC50) of 6.83 nM.
